Laboratory results taken from paper PMC5519985 (Nature Communications, 2017).
One block for each molecule: values may come before it.

Key:
IL-13Rα1 (Homo sapiens) = IL-13Rα1 (Homo sapiens) (UniProt P78552); details: cited from earlier work
[1] = biological target: SNAPf-IL-13Rα1-TM (IL-13Rα1 truncated after the transmembrane domain); test: single molecule co-localization and co-tracking (dual-colour TIRF microscopy); ^DY547IL-4Rα-TM and ^DY647IL-13Rα1-TM reconstituted into polymer-supported membranes (PSM); ligand from 10 pM up to 50 μM, 5 min equilibration; equilibrium model fitted to the dimerization curves
HaloTag-IL-13Rα1 = HaloTag-IL-13Rα1 (UniProt P78552); test: particle image cross-correlation (PICCS) of single molecule localizations on live cells; HeLa cells co-expressing ^DY647IL-4Rα and ^TMRIL-13Rα1, without and with ligand; correlated fraction α; effective 2D constant by the law of mass action from α and the surface concentrations corrected for the degree of labelling
IL-4Rα (Homo sapiens) = IL-4Rα (Homo sapiens) (UniProt P24394); details: cited from earlier work
[2] = biological target: T1, IL-4Rα-EC/IL-4D binary complex on the SSM (UniProt P05112 25-153; P24394 26-232, H59Y | K84D, CoA-ATTO 488 on the ybbR-tag); test: TIRFS-RIf (total internal reflection fluorescence spectroscopy with reflectance interference); SSM with IL-4Rα-EC and IL-13Rα1-EC; dissociation of ^AT488IL-4D while free IL-13Rα1-EC is blocked by injection of IL-13 (Supplementary Fig. 7); details: both partners purified
T1 construct: interleukin-4; IL-4Rα, ectodomain; Chains as m2 and m10; source: formed on the solid-supported membrane from m2 and m10; not shown: ybbR-tag, N-terminal, kept; His10, C-terminal, kept
T1 sequence (looked up) 1: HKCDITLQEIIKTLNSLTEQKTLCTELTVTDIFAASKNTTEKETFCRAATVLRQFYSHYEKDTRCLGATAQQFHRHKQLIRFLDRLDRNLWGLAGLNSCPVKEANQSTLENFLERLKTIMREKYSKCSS
T1 sequence (looked up) 2: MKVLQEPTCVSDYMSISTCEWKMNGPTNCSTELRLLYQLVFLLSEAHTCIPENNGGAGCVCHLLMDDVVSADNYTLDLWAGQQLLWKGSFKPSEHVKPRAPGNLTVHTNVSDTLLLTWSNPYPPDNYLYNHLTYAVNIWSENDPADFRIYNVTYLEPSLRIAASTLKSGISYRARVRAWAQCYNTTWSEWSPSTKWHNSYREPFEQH

Molecule: IL-4 (from UniProt P05112)
- Kd (IL-13Rα1 (Homo sapiens)): 2.5 µM

Molecule: IL-4/^DY647IL-4Rα binary complex in the plasma membrane of HeLa cells (from UniProt P05112 25-153; P24394 26-825)
- correlated fraction α (PICCS) (HaloTag-IL-13Rα1): 11%
- effective 2D equilibrium dissociation constant (molecules μm^−2) (HaloTag-IL-13Rα1): 0.1

Molecule: IL-13/IL-13Rα1-EC complex (from UniProt P35225)
- Kd (IL-4Rα (Homo sapiens)): 0.015 µM

Other lines, results leading:

- 2D equilibrium dissociation constant (molecules μm^−2) [1]: 1.6
Molecule: IL-4/^DY547IL-4Rα-TM binary complex in the PSM (from UniProt P05112 25-153)

- binding result [2]: binds
B1: IL-13Rα1-EC (ectodomain of IL-13Rα1 with C-terminal decahistidine tag) (domain or fragment, UniProt P78552 22-343, looked up)
chain: GGGGAAPTETQPPVTNLSVSVENLCTVIWTWNPPEGASSNCSLWYFSHFGDKQDKKIAPETRRSIEVPLNERICLQVGSQCSTNESEKPSILVEKCISPPEGDPESAVTELQCIWHNLSYMKCSWLPGRNTSPDTNYTLYYWHRSLEKIHQCENIFREGQYFGCSFDLTKVKDSSFEQHSVQIMVKDNAGKIKPSFNIVPLTSRVKPDPPHIKNLSFHNDDLYVQWENPQNFISRCLFYEVEVNNSQTETHNVFYVQEAKCENPEFERNVENTSCFMVPGVLPDTLNTVRIRVKTNKLCYEDDKLWSNWSQEMSIGKKRNST
modifications: CoA-Alexa Fluor 568 on the ybbR-tag in the FRET experiments (^AF568IL-13Rα1-EC); else unlabelled
